Measurements as given in PMC3807708.

How the values were obtained:
[1] = biological target: extracellular domain of human interferon-γ receptor 1 (IFN-γ-Rx), mutant N70G (human) (UniProt P15260); experiment: SPR; His-tagged receptor immobilised on Ni2+-coated HTG chip; IFN-γ-SC as analyte; PBST; 30 °C; preliminary data of temperature dependency
[2] = biological target: extracellular domain of human interferon-γ receptor 1 (IFN-γ-Rx), mutant S95R (human) (UniProt P15260); experiment: as above
[3] = biological target: extracellular domain of human interferon-γ receptor 1 (IFN-γ-Rx), mutant N96W (human) (UniProt P15260); experiment: as above
[4] = biological target: extracellular domain of human interferon-γ receptor 1 (IFN-γ-Rx), mutant H222R (human) (UniProt P15260); experiment: as above
[5] = biological target: extracellular domain of human interferon-γ receptor 1 (IFN-γ-Rx), wild type (human) (UniProt P15260); experiment: as above
[6] = biological target: extracellular domain of human interferon-γ receptor 1 (IFN-γ-Rx), mutant S95R (human) (UniProt P15260); experiment: SPR; His-tagged receptor immobilised on Ni2+-coated HTG chip; IFN-γ-SC as analyte; PBST; 20 °C; preliminary data of temperature dependency
[7] = biological target: extracellular domain of human interferon-γ receptor 1 (IFN-γ-Rx), mutant N96W (human) (UniProt P15260); experiment: as above
[8] = biological target: extracellular domain of human interferon-γ receptor 1 (IFN-γ-Rx), mutant H222R (human) (UniProt P15260); experiment: as above
[9] = biological target: extracellular domain of human interferon-γ receptor 1 (IFN-γ-Rx), wild type (human) (UniProt P15260); experiment: as above

Q: What does the source list for “single-chain form of human interferon-γ (IFN-γ-SC) (ligand)”?
A: Kd [1]: 49.2 nM; Kd [2]: 107 nM; Kd [3]: 12.2 nM; Kd [4]: 56 nM; Kd [5]: 59.9 nM; Kd [6]: 44.4 nM; Kd [7]: 5.28 nM; Kd [8]: 19.4 nM; Kd [9]: 21.7 nM
